Consider 2 molecules from publication PMC4838387, “PolDIP2 interacts with human PrimPol and enhances its DNA polymerase activities”.

One series concerns the target T1, PrimPol^1–354 (human) (UniProt Q96LW4).
T1 sequence: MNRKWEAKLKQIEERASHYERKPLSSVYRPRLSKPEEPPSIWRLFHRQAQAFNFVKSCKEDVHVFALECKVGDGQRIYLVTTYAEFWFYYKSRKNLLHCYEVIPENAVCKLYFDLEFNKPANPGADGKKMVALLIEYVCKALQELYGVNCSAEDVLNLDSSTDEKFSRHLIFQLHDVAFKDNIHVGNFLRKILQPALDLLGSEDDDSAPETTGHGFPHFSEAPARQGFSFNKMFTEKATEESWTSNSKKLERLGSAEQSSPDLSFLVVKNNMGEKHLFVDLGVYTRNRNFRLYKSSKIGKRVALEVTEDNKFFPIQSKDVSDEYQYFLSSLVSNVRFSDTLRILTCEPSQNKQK

The target of series [1] is T2, full-length human PrimPol (human) (UniProt Q96LW4).
T2 sequence: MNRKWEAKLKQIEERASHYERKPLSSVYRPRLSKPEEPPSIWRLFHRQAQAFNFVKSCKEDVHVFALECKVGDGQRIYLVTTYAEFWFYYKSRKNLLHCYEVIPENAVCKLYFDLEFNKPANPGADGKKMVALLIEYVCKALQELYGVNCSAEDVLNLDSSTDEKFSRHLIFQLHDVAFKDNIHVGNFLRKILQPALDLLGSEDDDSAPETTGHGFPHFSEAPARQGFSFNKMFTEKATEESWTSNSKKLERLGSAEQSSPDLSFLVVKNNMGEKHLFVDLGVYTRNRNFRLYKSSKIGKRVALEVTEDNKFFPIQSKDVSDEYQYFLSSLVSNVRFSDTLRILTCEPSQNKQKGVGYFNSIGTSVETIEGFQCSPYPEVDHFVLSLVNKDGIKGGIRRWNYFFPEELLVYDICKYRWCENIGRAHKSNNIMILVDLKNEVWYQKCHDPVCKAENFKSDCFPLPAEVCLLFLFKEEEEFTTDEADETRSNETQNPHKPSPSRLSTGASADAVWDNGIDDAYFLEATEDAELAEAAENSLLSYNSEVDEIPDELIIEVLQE

The target of series [2] is T3, PrimPol24-354 (AEP catalytic domain) (human, UniProt Q96LW4 24-354).
T3 sequence: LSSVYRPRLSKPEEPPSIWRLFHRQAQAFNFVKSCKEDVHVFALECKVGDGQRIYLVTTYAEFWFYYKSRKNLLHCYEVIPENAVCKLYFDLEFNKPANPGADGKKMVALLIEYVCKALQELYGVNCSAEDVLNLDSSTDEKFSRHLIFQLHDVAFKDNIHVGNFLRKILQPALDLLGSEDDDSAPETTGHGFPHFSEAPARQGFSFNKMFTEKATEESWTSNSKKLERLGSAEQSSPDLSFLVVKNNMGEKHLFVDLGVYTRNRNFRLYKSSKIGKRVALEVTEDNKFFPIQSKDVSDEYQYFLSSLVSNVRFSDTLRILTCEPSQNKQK
Description: EMSA; PrimPol 0.05-1 uM, 10 mM Mg2+, no PolDIP2; EMSA: 10 mM Bis-Tris-propane-HCl pH 7.0, 10 mM MgCl2, 100 uM DTT, 20 nM DNA; 5% native PAGE, 0.5x TBE; binding temperature not stated. The settings on record: protein: recombinant; label: 5'-HEX on primer; 3'-biotin on template; 20 bp duplex; template 5' overhang 77 nt. On the technique in general: In EMSA bound probe runs differently from free probe, usually more slowly.

Another series deals with T4, PolDIP2 (untagged) (UniProt Q9Y2S7 1-368).
T4 sequence: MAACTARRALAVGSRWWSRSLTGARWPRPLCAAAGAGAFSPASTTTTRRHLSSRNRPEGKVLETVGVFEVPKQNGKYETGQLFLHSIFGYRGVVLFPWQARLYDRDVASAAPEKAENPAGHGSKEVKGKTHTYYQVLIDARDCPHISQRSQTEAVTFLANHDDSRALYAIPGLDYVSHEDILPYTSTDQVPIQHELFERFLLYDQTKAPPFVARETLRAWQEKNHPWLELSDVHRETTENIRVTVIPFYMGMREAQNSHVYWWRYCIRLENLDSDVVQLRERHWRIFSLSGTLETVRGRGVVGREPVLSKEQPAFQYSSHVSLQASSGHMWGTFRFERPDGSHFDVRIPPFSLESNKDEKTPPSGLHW
Put plainly: EMSA; PolDIP2 alone (100 nM in Fig 2A), 10 mM Mg2+; EMSA: 10 mM Bis-Tris-propane-HCl pH 7.0, 10 mM MgCl2, 100 uM DTT, 20 nM DNA; 5% native PAGE, 0.5x TBE; binding temperature not stated. The settings on record: protein: recombinant; tags: none (GST cleaved with PreScission protease); label: 5'-HEX on primer; 3'-biotin on template; 20 bp duplex; template 5' overhang 77 nt.

B1: GST-PolDIP2 (natural protein)
chain: SSRNRPEGKVLETVGVFEVPKQNGKYETGQLFLHSIFGYRGVVLFPWQARLYDRDVASAAPEKAENPAGHGSKEVKGKTHTYYQVLIDARDCPHISQRSQTEAVTFLANHDDSRALYAIPGLDYVSHEDILPYTSTDQVPIQHELFERFLLYDQTKAPPFVARETLRAWQEKNHPWLELSDVHRETTENIRVTVIPFYMGMREAQNSHVYWWRYCIRLENLDSDVVQLRERHWRIFSLSGTLETVRGRGVVGREPVLSKEQPAFQYSSHVSLQASSGHMWGTFRFERPDGSHFDVRIPPFSLESNKDEKTPPSGLHW
In the case of B1, the K half of the stimulation of primer extension by PrimPol 1-354 (20 nM) on 20/50-mer DNA, GST-PolDIP2 0-120 nM with PrimPol^1–354 (human) is 33.9 nM. Further, the K half of the stimulation of primer extension by PrimPol (20 nM) on 20/50-mer DNA, GST-PolDIP2 0-120 nM in series [1] was 41 nM.

B2: 20/97-mer primer/template (HP-20 / ND-97) (mixed)
DNA 1: TGTCGTCTGTTCGGTCGTTC
DNA 2: ACCGCGAACTTGAATTCTAGTTCAGTCTAAATGCTCTCAAGCACTGAGCAATTCACAACATATGGCTTTCGATTACCGAACGACCGAACAGACGACA
As for B2, the binding result is “binds” in series [2] and “no binding” in the series with PolDIP2 (untagged).
